Literature values as cited in paper PMC12787518.
Where two headings read alike, the source gives them in different places.

Columns and labels:
His31 = His31 (UniProt position 31, TIGIGHLLTKS)
Asp70 = Asp70 (UniProt position 70, KLFNQDVDAAV); settings: folded (native, Asp70-His31 salt bridge formed)

Question: Which results are given for “T4 lysozyme (Enterobacteria phage T4 (Tequatrovirus T4))”?
Answer: pKa (His31; folded (native, Asp70-His31 salt bridge formed)): 9.1; pKa (His31; unfolded (before folding, no salt bridge), inferred from the wording 'during ... folding'): 6.8; pKa (Asp70): 0.5
